Results: patent publication US20230190867A1 (BIOINCEPT, published 2023)
No end group written: not given here.

What was measured:
[1] = target: T1, Elongation factor 1-alpha 1 (human, UniProt P68104 2-462); experiment: PIF-agarose affinity extraction, liver lysate column of Table 4 (row 'Eef1a1')
T1 construct: also called Eef1a1
T1 sequence (looked up): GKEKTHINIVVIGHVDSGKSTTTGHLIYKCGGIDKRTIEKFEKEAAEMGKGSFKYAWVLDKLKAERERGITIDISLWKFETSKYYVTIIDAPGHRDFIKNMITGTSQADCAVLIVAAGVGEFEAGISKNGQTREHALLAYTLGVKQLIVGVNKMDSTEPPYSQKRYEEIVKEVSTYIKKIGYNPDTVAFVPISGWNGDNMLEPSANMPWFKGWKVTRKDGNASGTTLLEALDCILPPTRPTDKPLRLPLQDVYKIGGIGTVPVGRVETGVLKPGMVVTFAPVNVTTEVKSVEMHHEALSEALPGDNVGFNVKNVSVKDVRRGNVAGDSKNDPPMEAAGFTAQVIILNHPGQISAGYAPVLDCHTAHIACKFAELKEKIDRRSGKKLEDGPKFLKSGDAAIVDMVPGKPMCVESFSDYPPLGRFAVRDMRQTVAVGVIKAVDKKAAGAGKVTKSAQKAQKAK

Isoform 2 of Protein SET = Isoform 2 of Protein SET (human, UniProt Q01105-2 2-277); experiment: PIF-agarose affinity extraction, liver lysate column of Table 4
Alpha-actinin-1 = Alpha-actinin-1 (human, UniProt P12814 1-892); experiment: as above
Cytochrome P450 26A1 = target: T2, Cytochrome P450 26A1 (human, UniProt O43174 1-497); experiment: as above
T2 sequence (looked up): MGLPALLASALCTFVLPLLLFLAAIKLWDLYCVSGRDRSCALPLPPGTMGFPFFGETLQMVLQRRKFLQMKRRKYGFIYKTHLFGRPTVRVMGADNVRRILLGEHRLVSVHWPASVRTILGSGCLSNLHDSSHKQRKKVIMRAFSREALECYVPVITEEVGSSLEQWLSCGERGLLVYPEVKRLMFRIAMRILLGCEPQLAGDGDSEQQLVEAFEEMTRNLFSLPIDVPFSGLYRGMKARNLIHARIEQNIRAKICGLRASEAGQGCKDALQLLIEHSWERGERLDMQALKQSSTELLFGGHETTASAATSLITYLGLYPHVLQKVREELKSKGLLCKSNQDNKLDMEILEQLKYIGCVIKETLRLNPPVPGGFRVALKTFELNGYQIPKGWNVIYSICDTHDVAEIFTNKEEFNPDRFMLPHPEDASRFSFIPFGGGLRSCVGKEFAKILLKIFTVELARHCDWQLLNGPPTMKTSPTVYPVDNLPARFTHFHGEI

[2] = target: Isoform 2 of Tropomyosin beta chain (human, UniProt P07951-2 1-284); experiment: as above
Isoform C of Lamin-A/C = target: T3, Isoform C of Lamin-A/C (human, UniProt P02545-2 1-572); experiment: as above
T3 sequence (looked up): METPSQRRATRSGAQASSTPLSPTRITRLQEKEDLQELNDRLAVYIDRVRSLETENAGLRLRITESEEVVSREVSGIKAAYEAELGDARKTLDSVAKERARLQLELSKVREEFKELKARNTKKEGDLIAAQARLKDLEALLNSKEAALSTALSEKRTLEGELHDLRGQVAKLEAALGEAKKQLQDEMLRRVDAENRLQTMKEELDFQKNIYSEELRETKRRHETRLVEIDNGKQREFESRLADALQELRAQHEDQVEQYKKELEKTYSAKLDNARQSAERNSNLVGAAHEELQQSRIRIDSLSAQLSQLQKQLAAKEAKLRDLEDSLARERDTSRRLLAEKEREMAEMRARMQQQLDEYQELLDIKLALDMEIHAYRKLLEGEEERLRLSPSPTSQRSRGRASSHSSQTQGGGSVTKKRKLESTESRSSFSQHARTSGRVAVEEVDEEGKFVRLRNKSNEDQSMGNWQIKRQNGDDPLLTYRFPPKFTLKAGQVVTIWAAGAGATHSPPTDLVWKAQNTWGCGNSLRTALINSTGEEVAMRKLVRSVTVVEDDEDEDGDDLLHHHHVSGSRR

[3] = target: T4, 14-3-3 protein beta/alpha (human, UniProt P31946 1-246); experiment: as above
T4 sequence (looked up): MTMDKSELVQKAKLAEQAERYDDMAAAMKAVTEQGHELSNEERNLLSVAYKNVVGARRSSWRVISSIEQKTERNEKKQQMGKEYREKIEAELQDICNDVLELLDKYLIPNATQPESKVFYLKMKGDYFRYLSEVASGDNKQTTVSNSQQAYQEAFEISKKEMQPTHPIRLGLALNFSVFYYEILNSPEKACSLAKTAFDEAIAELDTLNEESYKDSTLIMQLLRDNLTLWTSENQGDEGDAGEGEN

[4] = target: Actin, alpha skeletal muscle (human, UniProt P68133 3-377); experiment: as above
[5] = target: Eukaryotic initiation factor 4A-I (human, UniProt P60842 2-406); experiment: as above
[6] = target: Isoform 2 of Tropomyosin alpha-4 chain (human, UniProt P67936-2 1-284); experiment: as above
Nucleolin = Nucleolin (human, UniProt P19338 2-710); experiment: as above
[7] = target: T5, D-3-phosphoglycerate dehydrogenase (human, UniProt O43175 2-533); experiment: as above
T5 sequence (looked up): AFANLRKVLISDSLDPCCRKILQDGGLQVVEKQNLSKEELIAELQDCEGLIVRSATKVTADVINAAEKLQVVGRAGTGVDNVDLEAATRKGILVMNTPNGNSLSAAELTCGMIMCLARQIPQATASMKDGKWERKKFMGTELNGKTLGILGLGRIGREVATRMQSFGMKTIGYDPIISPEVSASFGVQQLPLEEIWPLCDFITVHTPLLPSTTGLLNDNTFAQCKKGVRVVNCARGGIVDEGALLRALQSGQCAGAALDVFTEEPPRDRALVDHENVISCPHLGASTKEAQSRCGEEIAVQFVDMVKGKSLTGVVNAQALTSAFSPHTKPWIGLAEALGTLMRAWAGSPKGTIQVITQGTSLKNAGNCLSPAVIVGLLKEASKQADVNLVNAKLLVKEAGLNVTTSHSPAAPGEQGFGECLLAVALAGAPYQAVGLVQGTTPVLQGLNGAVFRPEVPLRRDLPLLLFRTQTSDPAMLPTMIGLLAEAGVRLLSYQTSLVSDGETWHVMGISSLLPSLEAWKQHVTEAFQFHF

Thioredoxin = target: T6, Thioredoxin (human, UniProt P10599 2-105); experiment: as above
T6 sequence (looked up): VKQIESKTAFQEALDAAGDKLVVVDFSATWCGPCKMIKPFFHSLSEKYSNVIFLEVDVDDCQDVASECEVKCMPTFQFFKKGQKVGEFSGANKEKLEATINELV

14-3-3 protein eta = target: T7, 14-3-3 protein eta (human, UniProt Q04917 2-246); experiment: as above
T7 sequence (looked up): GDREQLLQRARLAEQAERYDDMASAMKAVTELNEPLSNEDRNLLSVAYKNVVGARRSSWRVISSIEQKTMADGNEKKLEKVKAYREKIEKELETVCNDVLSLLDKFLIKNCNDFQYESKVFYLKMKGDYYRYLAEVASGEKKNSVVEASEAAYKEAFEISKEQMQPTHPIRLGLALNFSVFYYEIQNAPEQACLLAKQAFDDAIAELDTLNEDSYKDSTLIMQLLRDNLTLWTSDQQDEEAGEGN

[8] = target: Acidic leucine-rich nuclear phosphoprotein 32 family Member A (human, UniProt P39687 1-249); experiment: as above
[9] = target: ATP synthase subunit beta, mitochondrial (human, UniProt P06576 48-529); experiment: as above
[10] = target: Serine/arginine-rich-splicing factor 1 (human, UniProt Q07955 2-248); experiment: as above
Annexin A2 = Annexin A2 (human, UniProt P07355 2-339); experiment: as above
[11] = target: Isoform 2 of Heat shock protein HSP 90-alpha (human, UniProt P07900-2 1-854, limits assumed); experiment: as above
PRDX4 = target: T8, PRDX4 (human, UniProt Q13162 38-271); experiment: as above
T8 sequence (looked up): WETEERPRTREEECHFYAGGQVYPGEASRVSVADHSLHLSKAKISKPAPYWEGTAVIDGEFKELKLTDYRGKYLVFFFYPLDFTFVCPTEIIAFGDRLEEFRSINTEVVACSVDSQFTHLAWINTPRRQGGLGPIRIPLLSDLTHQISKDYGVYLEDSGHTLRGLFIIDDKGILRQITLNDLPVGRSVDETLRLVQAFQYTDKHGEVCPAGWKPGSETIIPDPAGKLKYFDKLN

14-3-3 protein theta = target: T9, 14-3-3 protein theta (human, UniProt P27348 1-245); experiment: as above
T9 sequence (looked up): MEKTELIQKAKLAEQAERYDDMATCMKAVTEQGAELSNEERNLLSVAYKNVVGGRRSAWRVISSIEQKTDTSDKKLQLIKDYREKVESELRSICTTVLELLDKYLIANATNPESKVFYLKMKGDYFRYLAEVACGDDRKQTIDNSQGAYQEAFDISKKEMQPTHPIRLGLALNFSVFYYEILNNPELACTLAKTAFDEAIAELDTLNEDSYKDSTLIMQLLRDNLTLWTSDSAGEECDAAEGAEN

[12] = target: T10, 14-3-3 protein zeta/delta (human, UniProt P63104 1-245); experiment: as above
T10 sequence (looked up): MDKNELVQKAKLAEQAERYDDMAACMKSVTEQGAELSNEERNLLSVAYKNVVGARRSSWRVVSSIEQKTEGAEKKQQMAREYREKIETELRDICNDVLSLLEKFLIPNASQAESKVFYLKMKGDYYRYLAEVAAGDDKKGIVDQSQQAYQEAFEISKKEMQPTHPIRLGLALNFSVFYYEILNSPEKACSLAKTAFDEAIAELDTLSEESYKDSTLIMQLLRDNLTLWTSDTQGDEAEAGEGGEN

[13] = target: Isoform 2 of Tropomyosin alpha-3 chain (human, UniProt P06753-2 2-248); experiment: as above
14-3-3 protein gamma = target: T11, 14-3-3 protein gamma (human, UniProt P61981 1-247); experiment: as above
T11 sequence (looked up): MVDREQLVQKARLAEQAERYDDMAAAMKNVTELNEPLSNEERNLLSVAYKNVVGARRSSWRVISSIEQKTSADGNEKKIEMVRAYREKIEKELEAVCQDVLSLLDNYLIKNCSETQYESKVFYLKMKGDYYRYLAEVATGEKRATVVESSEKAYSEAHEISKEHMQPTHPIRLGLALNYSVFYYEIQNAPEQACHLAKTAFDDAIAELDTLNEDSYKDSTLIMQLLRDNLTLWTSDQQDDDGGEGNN

[14] = target: 40S ribosomal protein S3a (human, UniProt P61247 2-264); experiment: as above
[15] = target: T12, Serine/arginine-rich-splicing factor 2 (human, UniProt Q01130 2-221); experiment: as above
T12 sequence (looked up): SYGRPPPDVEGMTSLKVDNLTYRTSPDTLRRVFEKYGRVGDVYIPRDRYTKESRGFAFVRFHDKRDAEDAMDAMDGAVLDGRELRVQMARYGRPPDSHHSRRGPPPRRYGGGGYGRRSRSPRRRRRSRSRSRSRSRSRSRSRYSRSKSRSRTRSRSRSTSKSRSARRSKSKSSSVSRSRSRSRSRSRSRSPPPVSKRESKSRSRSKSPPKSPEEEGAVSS

Cofilin-1 = Cofilin-1 (human, UniProt P23528 2-166); experiment: as above

Measured: binding result

B1: sPIF-1(15) (peptide)
peptide: MVRIKPGSANKPSDD
modifications: also: coupled to agarose support
notes: also called synthetic preimplantation factor
binds: all assays above
